This data set in a line: yeast display, Sf9 membrane polyspecificity reagent, FACS + sequencing; frameworks hold sequencing errors. The method, boiled down:
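Galactose-induced (36–48 hours) yeast carrying a synthetic nanobody display library were exposed to 10% biotinylated, detergent-solubilized Sf9 membrane reagent at 4 °C for 1 hour. FACS followed streptavidin microbead enrichment, using low and high (top ~1%) gates for expression (anti-HA) and reagent binding (streptavidin). Colony PCR, MiSeq 2 × 250 sequencing and CDR-length filtering followed. Labels for polyreactivity reflect the gate of origin.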
As for “QVQLVESGGGLVQAGGSLRLSCAASGNIFLYYAMGWYRQAPGKERELVADIDSSGASTYYADSVKGRFTISRDNAKNTVYLQMNSLKPEDTAVYYCAARGRKNQRRYGYWGQGTQVTVSS”, the “polyreactivity (PSR sort gate)” value is given as “low polyreactivity”.
As for “QVQLVESGGGLVQAGGSLRLSCAASGRIFGDYAMGWYRKAPGKERELLAAISWSDGSTYYADSVKGRFTISRDNAKNTVYLQMNSLKPEDTAVYYCAAYGWGYRYVDVVVSDFYYWGQGTQVTVSS”, the entry is “low polyreactivity”; as for “QVQLVESGGGLVQAGGSLRLSCAASGRIFFTNAMGWYRQAPGKERELVATISSSDGSTYYADSVTGRFTISRDNAKNTVYLQMNSLKPEDTAVYYCAARYRSTFYNTYDRVYWGQGTQVTVSS”, “high polyreactivity”; as for “QVQLVESGGGLVQAGGSLRLSCAASGFTFKRNAMGWYRQAPGKERELVAAISWSGSRTYADSVKGRFTISRDNAKNTVYLQMNSLKPEDTAVYYCAASPGRRRRPYASLIRYDYWGQGTQVTVSS”, “high polyreactivity”.
The entry for “QVQLVESGGGLVQAGGSLRLSCAASGSISIRNAMGWYRQAPGKERELVAAISRGGSTYYADSVKGRFTISRDNAKNKVYLQMNSLKPEDTAVYYCNVLHLRRTAIMDYWGQGTQVTVSS” is “high polyreactivity”; for “QVQLVESGGGLVQAGGSLRISCAASGRTFDRYAMGWYREAPGKERELVAVIRFIGGSTYYADSVKGRFTISRDNAKKTVYLQRNSLIPEDTAVYYCAAEVYDSYFFGYEYWGQGTQVTVSS” it is “low polyreactivity”; for “QVQLVESAGGLVQAGGTLSLSCAASGSTFYNYAMGWYRQAPGTETELVAAISSGGSTNYADSVKGRFTISRDNAKNTVYLQMNSLKPEDTAVYYCARRHRVYPSRIGHDYWGQGTQVTVSS” it is “low polyreactivity”.
The entry for “QVQLVESGGGLVQAGGSLRLSCAASGLTFYIYAMGWYRQAPGKERELVASITWSTTSTSYADSVKGRFTISRDNAKNTVYLQLKSLKPEDTAVYYCNADVPGYFLYDDSYEYWGQGTQVTVSS” is “low polyreactivity”.
“QVQLVESGGGLVQAGGSLRLRCAASGRILVRYAMGWYRQAPGKERELVAAISRGGSTTYADSVKGRFTISRDNAKNTVYLQMNSLKPEDTAVYYCAAGRYPYNRDYWGQGTQVTVSS”: the “polyreactivity (PSR sort gate)” value is “high polyreactivity”.
The entry for “QVQLVESGGGLVQAGGSLRLSCAASGSIFTAYAMGWYRQAPGKERELVAAISYGGGSTYYADSVKGRFTISRDNAKNTVYLQMNSLKPEDTAVYYCAAASSGEYGYWGQGTLVTVSS” is “low polyreactivity”; for “QVQLVESGGGLVQAGGSLRLSCAASGRTFSWYAMGWYRQAPGKEREFVAAITSGGSTYYADSVKGRFTISRDNAMNTVYLQMNSLKPEDTAVYYCAAYGYWGQGTQVTVSS” it is “high polyreactivity”; for “QVQLVESGGGLVQAGGSLRLSCAASGRTFRWYAMGWYRQAPGKERELVAAITSSSSTNYADSVKGRFTISRDNAKNTVYLQMNSLKPEDTAVYYCAKGWNWYDLGESGYWGQGTQVTVSS” it is “low polyreactivity”.
The entry for “QVQLVESGGGLVQAGGSLRLSCAASGRIFYGYAMGWYRQAPGKERELVAAIRTSGGSTYYADSVKGRFTISRDNAKNTVYLQMNSLKPEDTAVYYCNAGIVPRNRYYTPYNYWGQGTQVTVSS” is “low polyreactivity”; for “QVQLVESGGGLVQAGGSLSLSCAASGSIFAGNAMGWYRQAPGKERELVAAIRWSTGSTYYADSVKGRFTISRDNAKNTVYLQMNSQKPEDTAVYYCAATDTTFYGIVRYEFWGQGTQVTVSS” it is “low polyreactivity”; for “QVQLVESGGGLVQAGGSLRLISAASGRTFYSNAMGWYRQAPGKERELVAAITKSGGRTYYADSVKGRFTISRDNAKNTDYLQMNSLIPEDTAVYYCKALVAAYYGYDYWGQGTQVTVSS” it is “high polyreactivity”.
With “QVQLVESGGGLVQAGGSLRLSCAASGRIFGNYAMGWYRQAPGKERELVAAIRWSGGRTYYADSVKGRFTISRDTAKNTVYLQMNSLKPEDTAVYYCNAYGRYSYPTFDYWGQGTQVTVSS”, the “polyreactivity (PSR sort gate)” value was “high polyreactivity”.
With “QVQLVESGGGLVQAGGSLRLSSAASGSIFYNNAMGWYRQAPGKERELVAAISGSGDSTYYADSVKGRFTISRDNAKNTVYLQMNSLIPDDTAVYYCNATPYVLWWSDMDYWGQGTQVTVSS”, the “polyreactivity (PSR sort gate)” value is recorded as “high polyreactivity”.
Take “QVQLVESGGGLVQAGCSLRLSSAASGSTFLGYAMGWYRQAPGKERELVAAITYSAGSTYYADSVKGRFTISRDNAKNTVYLQMNSLKPEDTAVYYCSKRYSGYDHWGQGTQVTVSS”: the “polyreactivity (PSR sort gate)” value is “low polyreactivity”.
As for “QVQLVESGGGLVQAGGSLRLSCAASGRTFYYYAMGWYRQAPGKEREFVAAISWSGVRTSYADSVKGRFTISRDNAKNTVYLQMNSQKPEDTAVYYCNVAVAFYYDYWYSTYLTYEYDYWGQGTQVTVSS”, the entry is “high polyreactivity”.
In the case of “QVQLVESGGGLVQAGGSLRLSCAASGSIFVLYAMGWYRQAPGKERELVAAISWRGGGTYYADSVKGRFTISRDNAKNTVYLLMNSLKPEDTAVYYCAAEYRLDAILYTYEFDYWGQGTQVTVSS”, the “polyreactivity (PSR sort gate)” value is “high polyreactivity”.
The entry for “QVQLVESGGGLVQAGGSLRLSCAASGYTYRWYAMGWYRQAPGKEREMVAAINRNGGSTFYADSVKGRFTISRDNAKNSVYLQMNSLKPEDTAVYFCAARYSSLPRYLTDGLDYWGQGTQVTVSS” is “high polyreactivity”.
The entry for “QVQLVESGGGLVQAGGSLRLSCAASGRIFEDYAMGWYRQAAGKERELVARISSGDSTNYADSVKGRFTISRDNAKNTVYLQMNSLKPVVTAVYYCAAEGGVQEFDYWGQGTQVTVSS” is “low polyreactivity”; for “QVQLVESGGGLVQAGGSLRLSCAASGSIFIWNAMGWYRQAPGKERELVAAISFSGGSTYYADSVKGRFTISRDNAKNTVYLQMNSLKPEDTAVYYCAADSYSGRYYWWEYDYWGQGTQVTVSS” it is “low polyreactivity”.
The entry for “QVQLVESGGGLVQAGGSLRLSCAASVSIFWSYAMGWSRLAPGKERELVASISRSTGRTRYADSVKGRFTFSRDNAKNTVDLQMNSLKPEDTAVYYCNAEKRGQSYRFDYWGQGTQVTVSS” is “high polyreactivity”.
On to “QVQLVESGGGLVQAGGSLRLSCAASGIIFYFYTMGWYRQAPGKERELVAAISSSGGRTFYADSVKGRFTISRDNAKNTVYLQMNSLKPEDTAVYYCAAAHTREYYWGQGTQVTVSS”, for which the “polyreactivity (PSR sort gate)” value is given as “high polyreactivity”.
As for “QVQLVESGGGLVQAGGSLRLSSAASGSIFPRYVMGCYRQAPGKERELVPAISRGGSTNYADSVKGRFTISRDNAKNTVYLQMNSLKPEDTAVYYCDAVLYTRYNYWGQGTQVTVSS”, the entry is “high polyreactivity”; as for “QVQLVESGGGLVQAGGSLRLSCAASGFIFYSNAMGWYRQAPGKERELVAAIRSTGSTSYADSVKGRFTISRDNAKNTVYLQMNSLKPEDTAVYYCAKVRYWRGYDYWGQGTQVTVSS”, “high polyreactivity”.
As for “QVQLVESGGRLVQAGGSLRLSCAASGRTFSFYAMGWYRQAPGQERELVAGIDWDDGSTSYADSVKGRFTISRDNAKNSVYLQMNSLKPEDTAVYYCAADIGYDDYNDYDYWGQGTQVTVSS”, the “polyreactivity (PSR sort gate)” value was “low polyreactivity”.
With “QVQLVESGGGLVQAGGSLRLSCAASGFTFWYYDMGWYRQAPGKERELVAAISRSGTSTYYADSVKGRFTISRDNAKNTVYLQMNSLKPEDTAVYYCNKVRNTRSYDYWGQGTQVTVSS”, the “polyreactivity (PSR sort gate)” value is recorded as “high polyreactivity”.
With “QVQLVESGGGLVQAGGSLRLSCAASGSIFPYNAMGWYRQAPGKERELVATISSGGSTNYADSVKGRFTISRDNAKNTVYLHMNSLKPEDTAVYYCAADVIVFYYAPNYWGDIGYGYWGQGTQVTVSS”, the “polyreactivity (PSR sort gate)” value is on record as “low polyreactivity”.
With “QVQLVESGGGLVQAGGSLRLSCAASGSTFRYYVMGWYRQAPGKERELVAAISAGGGRTYYADSVKGRFTISRDNSKNTVYLQMNSLKPEDTAVYYCAAKSVTPYWQEYEYDYWGQGTQVTVSS”, the “polyreactivity (PSR sort gate)” value is “high polyreactivity”.
As for “QVQLVESGGGLVQAGGSLRLICAASGRIFYNYVMGCYRQAPGKERDLVAAISVSSGNTYYADSVKGRFTISRDYAKITVYLQMNSLKPEDTAVYYCARLRTVGGYSKYDYWGQGTQVTVSS”, the entry is “low polyreactivity”; as for “QDQLVESGGGLVHAGGSLLLSCAACRRLFSQYVMGWYRQAPGKERELVAAISSGGGRTYYADSVKGRFTISRDYAKNTVYLQLNSLKPEDTAVYYCATLRPSAYPQYDSWGQGTQVTVSS”, “high polyreactivity”; as for “QVQLVESGGGLVQAGGSLRLSCAASGSTFQFNAMGWYRPAPGKEREFVAAITSSAGRTYYADSVKGRFTISRDNAKKTVYLQMNSLKPEDTAVYYCATGPYSPPSAGPEYDYWGQGTQVTVSS”, “high polyreactivity”.
The entry for “QVQLVESGGGLVQAGGSLRLSCAASGNIFGYYVMGWYRQAPGKERELVAAITWSAGTTNYADSVKGRFTISRDNAKNTVYLQMNSLKPEDTAVYYCAVTWWYQDYDLTWYLYDYWGQGTQVTVSS” is “low polyreactivity”; for “QDQLVESGGGLVQAGGSLRLSCAASGFTIERYAMGWYRQAPGKERELVAVISTSGGSTYYADSVKGRFTISRDNGKNTVYLLMNSLKPEDTAVYYCAAPSVSQYSSKKYDYWGQGTQVTVSS” it is “low polyreactivity”; for “QVQLVESGGGLVQAGGSLRLRCAASGGTFYYYAMGWYRQAPGKERELVAAISTSGTSTYYADSVKGRFTISRDNAKNTVYLQMNSLKPEDTAVYDCAARGLRVSSRGYYWGQGTQVTVSS” it is “high polyreactivity”.
The entry for “QVQLVESGGGLVQAGGSLRLSCAASGGIFKAYAMGWYRQAPGKERELVAVITIGGRTTYADSVKGRFTISRDNAKNTVYLQMNSLKPEDTAVYYCAKTNYNWLSTAEHDYWGQGTQVTVSS” is “low polyreactivity”.
As to “QVQLVDSGGGLVQAGGSLRLSCAASGIIYRFYAMGWYRQAPAQEREMVAAISSGGSTYYADSVKGRCTISRDTAKNTVYLQINRLKPEDTAVYYCNARVRYKRTGRYGYWGQGTQVTVSS”, the “polyreactivity (PSR sort gate)” value is “high polyreactivity”.
The entry for “QVQLVESGGGLVQAGGSLRLTCAASGSIFPKNAIGWYRQAPGKERQLVAGITSRTGRTYYADSVKGRFTISRDNAENTVYLQMNSLKPEDTAVYYCAARNPSGKGRYDYWGQGSQVTVSS” is “high polyreactivity”; for “QVQLVESGGGLVQAGGSLRLSCAASGLTFWANTMGWYRQAPGKERELVAAITWSGGSTYYADSVKGRFTISRDNAKNTVNLQMNSLKPEDTAVYYCAADEYFAAGYSYYYWGQGSQVTVSS” it is “low polyreactivity”.
